Kd, koff and kon data for 18 molecules are collected here from patent US20220275067A1 (PROTHENA BIOSCIENCES, published 2022).

The term Kd denotes the free concentration of one partner at which half of the binding sites on the other are occupied at equilibrium, for simple one-to-one binding. Broadly, the koff is the first-order rate constant of dissociation. In general, kon refers to the rate constant with which the complex forms.

First the molecules themselves.
B1: hu9F5VHv9/hu9F5VLv8 (antibody, V domains shown)
VH: EVQLVQSGAEVKKPGATVKISCKASGFNIKDDYMNWVQQRPGKGLEWIGWIDPENGDTEYASKFQGRATMTADTSTNTAYMELSSLRSEDTAVYYCTTSNGWGQGTLVTVSS
VL: DIVMTQSPFSLPVTPGESASISCRSSKSLLHSNGITYLYWYLQKPGQSPQLLIYQMSNLASGVPNRFSSSGSGTDFTLKISRVEAEDVGVYYCAQNLELPLTFGQGTKLEIK
B2: hu9F5VHv9/hu9F5VLv8_DIM1 (antibody, V domains shown)
VH: EVQLVQSGAEVKKPGATVKISCKASGFNIKDDYMNWVQQRPGKGLEWIGWIDPENGDTEYASKFQGRATMTADTSTNTAYMELSSLRSEDTAVYYCTTSNGWGQGTLVTVSS
VL: DIQMTQSPFSLPVTPGESASISCRSSKSLSHSNGITYLYWYQQKPGQSPQLLIYQGSNGASGVPNRFSSSGSGTDFTLKISRVEAEDVGVYYCAQNIELPLTFGQGTKLEIK
B3: hu9F5VHv9/hu9F5VLv8_DIM16 (antibody, V domains shown)
VH: EVQLVQSGAEVKKPGATVKISCKASGFNIKDDYMNWVQQRPGKGLEWIGWIDPENGDTEYASKFQGRATMTADTSTNTAYMELSSLRSEDTAVYYCTTSNGWGQGTLVTVSS
VL: DIQMTQSPFSLPVTPGESASISCRSSKSLGHSNGITYLYWYGQKPGQSPQLLIYQGSNTASGVPNRFSSSGSGTDFTLKISRVEAEDVGVYYCAQNLELPLTFGQGTKLEIK
B4: hu9F5VHv9/hu9F5VLv8_DIM11 (antibody, V domains shown)
VH: EVQLVQSGAEVKKPGATVKISCKASGFNIKDDYMNWVQQRPGKGLEWIGWIDPENGDTEYASKFQGRATMTADTSTNTAYMELSSLRSEDTAVYYCTTSNGWGQGTLVTVSS
VL: DIQMTQSPFSLPVTPGESASISCRSSKSLGHSNGITYLYWYGQKPGQSPQLLIYQGSNRASGVPNRFSSSGSGTDFTLKISRVEAEDVGVYYCAQNIELPLTFGQGTKLEIK
B5: hu9F5VHv9/hu9F5VLv8_DIM3 (antibody, V domains shown)
VH: EVQLVQSGAEVKKPGATVKISCKASGFNIKDDYMNWVQQRPGKGLEWIGWIDPENGDTEYASKFQGRATMTADTSTNTAYMELSSLRSEDTAVYYCTTSNGWGQGTLVTVSS
VL: DIQMTQSPFSLPVTPGESASISCRSSKSLSHSNGITYLYWYQQKPGQSPQLLIYQGSNTASGVPNRFSSSGSGTDFTLKISRVEAEDVGVYYCAQNIELPLTFGQGTKLEIK
B6: hu9F5VHv9/hu9F5VLv8_DIM9 (antibody, V domains shown)
VH: EVQLVQSGAEVKKPGATVKISCKASGFNIKDDYMNWVQQRPGKGLEWIGWIDPENGDTEYASKFQGRATMTADTSTNTAYMELSSLRSEDTAVYYCTTSNGWGQGTLVTVSS
VL: DIQMTQSPFSLPVTPGESASISCRSSKSLGHSNGITYLYWYQQKPGQSPQLLIYQKSNGASGVPNRFSSSGSGTDFTLKISRVEAEDVGVYYCAQNIELPLTFGQGTKLEIK
B7: hu9F5VHv9/hu9F5VLv8_DIM4 (antibody, V domains shown)
VH: EVQLVQSGAEVKKPGATVKISCKASGFNIKDDYMNWVQQRPGKGLEWIGWIDPENGDTEYASKFQGRATMTADTSTNTAYMELSSLRSEDTAVYYCTTSNGWGQGTLVTVSS
VL: DIQMTQSPFSLPVTPGESASISCRSSKSLSHSNGITYLYWYQQKPGQSPQLLIYQGSNRASGVPNRFSSSGSGTDFTLKISRVEAEDVGVYYCAQNGELPLTFGQGTKLEIK
B8: hu9F5VHv9/hu9F5VLv8_DIM17 (antibody, V domains shown)
VH: EVQLVQSGAEVKKPGATVKISCKASGFNIKDDYMNWVQQRPGKGLEWIGWIDPENGDTEYASKFQGRATMTADTSTNTAYMELSSLRSEDTAVYYCTTSNGWGQGTLVTVSS
VL: DIQMTQSPFSLPVTPGESASISCRSSKSLSHSNGITYLYWYGQKPGQSPQLLIYQGSNTASGVPNRFSSSGSGTDFTLKISRVEAEDVGVYYCAQNIELPLTFGQGTKLEIK
B9: hu9F5VHv9/hu9F5VLv8_DIM5 (antibody, V domains shown)
VH: EVQLVQSGAEVKKPGATVKISCKASGFNIKDDYMNWVQQRPGKGLEWIGWIDPENGDTEYASKFQGRATMTADTSTNTAYMELSSLRSEDTAVYYCTTSNGWGQGTLVTVSS
VL: DIQMTQSPFSLPVTPGESASISCRSSKSLGHSNGITYLYWYQQKPGQSPQLLIYQGSNRASGVPNRFSSSGSGTDFTLKISRVEAEDVGVYYCAQNIELPLTFGQGTKLEIK
B10: hu9F5VHv9/hu9F5VLv8_DIM14 (antibody, V domains shown)
VH: EVQLVQSGAEVKKPGATVKISCKASGFNIKDDYMNWVQQRPGKGLEWIGWIDPENGDTEYASKFQGRATMTADTSTNTAYMELSSLRSEDTAVYYCTTSNGWGQGTLVTVSS
VL: DIQMTQSPFSLPVTPGESASISCRSSKSLGHSNGITYLYWYGQKPGQSPQLLIYQGSNTASGVPNRFSSSGSGTDFTLKISRVEAEDVGVYYCAQNIELPLTFGQGTKLEIK
B11: hu9F5VHv9/hu9F5VLv8_DIM13 (antibody, V domains shown)
VH: EVQLVQSGAEVKKPGATVKISCKASGFNIKDDYMNWVQQRPGKGLEWIGWIDPENGDTEYASKFQGRATMTADTSTNTAYMELSSLRSEDTAVYYCTTSNGWGQGTLVTVSS
VL: DIQMTQSPFSLPVTPGESASISCRSSKSLGHSNGITYLYWYGQKPGQSPQLLIYQGSNRASGVPNRFSSSGSGTDFTLKISRVEAEDVGVYYCAQNLELPLTFGQGTKLEIK
B12: hu9F5VHv9/hu9F5VLv8_DIM15 (antibody, V domains shown)
VH: EVQLVQSGAEVKKPGATVKISCKASGFNIKDDYMNWVQQRPGKGLEWIGWIDPENGDTEYASKFQGRATMTADTSTNTAYMELSSLRSEDTAVYYCTTSNGWGQGTLVTVSS
VL: DIQMTQSPFSLPVTPGESASISCRSSKSLGHSNGITYLYWYGQKPGQSPQLLIYQGSNTASGVPNRFSSSGSGTDFTLKISRVEAEDVGVYYCAQNGELPLTFGQGTKLEIK
B13: hu9F5VHv9/hu9F5VLv8_DIM7 (antibody, V domains shown)
VH: EVQLVQSGAEVKKPGATVKISCKASGFNIKDDYMNWVQQRPGKGLEWIGWIDPENGDTEYASKFQGRATMTADTSTNTAYMELSSLRSEDTAVYYCTTSNGWGQGTLVTVSS
VL: DIQMTQSPFSLPVTPGESASISCRSSKSLDHSNGITYLYWYQQKPGQSPQLLIYQKSNRASGVPNRFSSSGSGTDFTLKISRVEAEDVGVYYCAQNIELPLTFGQGTKLEIK
B14: hu9F5VHv9/hu9F5VLv8_DIM8 (antibody, V domains shown)
VH: EVQLVQSGAEVKKPGATVKISCKASGFNIKDDYMNWVQQRPGKGLEWIGWIDPENGDTEYASKFQGRATMTADTSTNTAYMELSSLRSEDTAVYYCTTSNGWGQGTLVTVSS
VL: DIQMTQSPFSLPVTPGESASISCRSSKSLGHSNGITYLYWYQQKPGQSPQLLIYQKSNRASGVPNRFSSSGSGTDFTLKISRVEAEDVGVYYCAQNIELPLTFGQGTKLEIK
B15: hu9F5VHv9/hu9F5VLv8_DIM10 (antibody, V domains shown)
VH: EVQLVQSGAEVKKPGATVKISCKASGFNIKDDYMNWVQQRPGKGLEWIGWIDPENGDTEYASKFQGRATMTADTSTNTAYMELSSLRSEDTAVYYCTTSNGWGQGTLVTVSS
VL: DIQMTQSPFSLPVTPGESASISCRSSKSLSHSNGITYLYWYQQKPGQSPQLLIYQKSNGASGVPNRFSSSGSGTDFTLKISRVEAEDVGVYYCAQNIELPLTFGQGTKLEIK
B16: hu9F5VHv9/hu9F5VLv8_DIM2 (antibody, V domains shown)
VH: EVQLVQSGAEVKKPGATVKISCKASGFNIKDDYMNWVQQRPGKGLEWIGWIDPENGDTEYASKFQGRATMTADTSTNTAYMELSSLRSEDTAVYYCTTSNGWGQGTLVTVSS
VL: DIQMTQSPFSLPVTPGESASISCRSSKSLSHSNGITYLYWYQQKPGQSPQLLIYQGSNRASGVPNRFSSSGSGTDFTLKISRVEAEDVGVYYCAQNIELPLTFGQGTKLEIK
B17: hu9F5VHv9/hu9F5VLv8_DIM6 (antibody, V domains shown)
VH: EVQLVQSGAEVKKPGATVKISCKASGFNIKDDYMNWVQQRPGKGLEWIGWIDPENGDTEYASKFQGRATMTADTSTNTAYMELSSLRSEDTAVYYCTTSNGWGQGTLVTVSS
VL: DIQMTQSPFSLPVTPGESASISCRSSKSLDHSNGITYLYWYQQKPGQSPQLLIYQGSNRASGVPNRFSSSGSGTDFTLKISRVEAEDVGVYYCAQNIELPLTFGQGTKLEIK
B18: hu9F5VHv9/hu9F5VLv8_DIM12 (antibody, V domains shown)
VH: EVQLVQSGAEVKKPGATVKISCKASGFNIKDDYMNWVQQRPGKGLEWIGWIDPENGDTEYASKFQGRATMTADTSTNTAYMELSSLRSEDTAVYYCTTSNGWGQGTLVTVSS
VL: DIQMTQSPFSLPVTPGESASISCRSSKSLGHSNGITYLYWYGQKPGQSPQLLIYQGSNRASGVPNRFSSSGSGTDFTLKISRVEAEDVGVYYCAQNGELPLTFGQGTKLEIK

The target in the test is T1, recombinant human 4R0N tau (human, UniProt P10636 2-758).
T1 construct: also called recombinant 4R0N human tau; P10636-6
T1 sequence (P10636 other isoform, or with tags, fused parts or gaps limits assumed): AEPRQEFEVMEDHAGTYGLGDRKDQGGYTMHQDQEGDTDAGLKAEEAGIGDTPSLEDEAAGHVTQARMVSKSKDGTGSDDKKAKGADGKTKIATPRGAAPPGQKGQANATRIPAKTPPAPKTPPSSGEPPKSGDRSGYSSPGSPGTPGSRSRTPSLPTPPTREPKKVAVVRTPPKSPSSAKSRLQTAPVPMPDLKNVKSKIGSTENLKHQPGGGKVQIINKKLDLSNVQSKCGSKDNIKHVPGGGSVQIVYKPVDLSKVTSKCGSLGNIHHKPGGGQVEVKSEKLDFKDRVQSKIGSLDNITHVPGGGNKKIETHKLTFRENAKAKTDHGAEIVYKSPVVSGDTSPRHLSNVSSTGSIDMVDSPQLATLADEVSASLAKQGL
The experiment in a line: SPR Biacore T200; antibody captured by anti-human Fc; tau as analyte; global 1:1 fit. On the procedure: Target binding analysis was performed using a Biacore T200 to compare the binding affinity of humanized 9F5 variants to recombinant human 4R0N tau. Anti-Human Fc antibody was immobilized on sensor chip CM3 via amine coupling, and humanized 9F5 variants were captured to equivalent levels. Various concentrations of recombinant 4R0N human tau (ranging from 0.02 nM to 12.5 nM) were passed over the captured ligand at 50 μL/min in running buffer (HBS+0.05% P-20, 1 mg/mL BSA) for 180 seconds association/420 seconds dissociation as a single cycle. Data was blank subtracted to both an irrelevant sensor not containing antibody and 0 nM analyte concentration. Analysis was performed using a global 1:1 fit with Biacore Evaluation software.
For B1, the dissociation constant (Kd) was 0.269 nM, the koff came to 0.000429 s⁻¹ and the kon was determined as 1.72e+06 M⁻¹ s⁻¹.

For the molecule B2, the Kd worked out at 0.844 nM, the koff is 0.00559 s⁻¹ and the kon turned out to be 6.62e+06 M⁻¹ s⁻¹.

As to B3, the Kd was found to be 0.355 nM, the koff was 0.000808 s⁻¹ and the kon was found to be 2.27e+06 M⁻¹ s⁻¹.

With B4, the Kd stood at 0.0772 nM, the koff was 0.00011 s⁻¹ and the kon is 1.42e+06 M⁻¹ s⁻¹.

Take B5: the Kd was found to be 0.6 nM, the koff was 0.00068 s⁻¹ and the kon amounted to 1.13e+06 M⁻¹ s⁻¹.

Take B6: the Kd was 5.07 nM, the koff was 0.0116 s⁻¹ and the kon was found to be 2.29e+06 M⁻¹ s⁻¹.

As for B7, the equilibrium dissociation constant (Kd) was 2.63 nM, the dissociation rate constant (koff) is 0.00143 s⁻¹ and the on-rate (kon) was found to be 542000 M⁻¹ s⁻¹.

Turning to B8, the Kd was determined as 0.128 nM, the koff was 0.000326 s⁻¹ and the kon was 2.54e+06 M⁻¹ s⁻¹.

Regarding B9, the Kd turned out to be 0.169 nM, the koff was 0.000295 s⁻¹ and the kon was determined as 1.75e+06 M⁻¹ s⁻¹.

With B10, the Kd was 0.142 nM, the koff stood at 0.000188 s⁻¹ and the kon came to 1.33e+06 M⁻¹ s⁻¹.

As to B11, the Kd amounted to 0.266 nM, the koff amounted to 0.000439 s⁻¹ and the kon is 1.65e+06 M⁻¹ s⁻¹.

Take B12: the Kd worked out at 0.873 nM, the dissociation rate constant (koff) is 0.000732 s⁻¹ and the kon came out at 839000 M⁻¹ s⁻¹.

For the molecule B13, the Kd worked out at 0.18 nM, the koff was 0.000424 s⁻¹ and the kon came out at 2.36e+06 M⁻¹ s⁻¹.

As to B14, the Kd came to 0.435 nM, the koff stood at 0.000576 s⁻¹ and the kon is 1.32e+06 M⁻¹ s⁻¹.

As for B15, the Kd was 3.92 nM, the koff was 0.0741 s⁻¹ and the kon worked out at 1.89e+07 M⁻¹ s⁻¹.

Consider B16, for which the Kd is 0.299 nM, the koff is 0.000586 s⁻¹ and the kon was determined as 1.96e+06 M⁻¹ s⁻¹.

Regarding B17, the Kd is 0.178 nM, the dissociation rate constant (koff) worked out at 0.000272 s⁻¹ and the kon was 1.53e+06 M⁻¹ s⁻¹.

For B18, the Kd was found to be 0.221 nM, the koff was 0.000429 s⁻¹ and the kon amounted to 1.94e+06 M⁻¹ s⁻¹.
